By EC50 is commonly meant the concentration that produces a half-maximal response.

Data on one substance can be found in patent US20230406948A1.

The target of assay [1] is human CD40 on cells (native CD40 on Ramos cells, human B cells, human monocyte-derived dendritic cells; cell surface CD40) (human) (UniProt P25942). The assay can be described thus: FACS on live Ramos cells, goat anti-human IgG (H+L) PE.
Assay [2] shares this target. The assay can be described thus: cell-based or functional assay.

Sequence of human CD40 on cells (native CD40 on Ramos cells, human B cells, human monocyte-derived dendritic cells; cell surface CD40) (human) (P25942 21-193): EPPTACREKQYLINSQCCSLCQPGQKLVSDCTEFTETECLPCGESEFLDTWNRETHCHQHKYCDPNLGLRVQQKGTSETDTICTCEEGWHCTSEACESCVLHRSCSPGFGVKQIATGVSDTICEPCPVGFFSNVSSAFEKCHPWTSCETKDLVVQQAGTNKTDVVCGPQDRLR

Substance SGN-40 (antibody) yielded an EC50 in assay [1] of 0.0218 µg/mL. Also, the EC50 (ng/ml), CD40 agonist activity: up-regulation of CD86 on human B cells in assay [2] was found to be 1260 ng/mL.
